Laboratory results reported in patent US10828326B2, “Compositions and methods for treating and preventing venom related poisoning” (priority 2015, dated 2020).

System: human plasma
Assay: Thrombelastography of human plasma exposed to Crotalus atrox venom and/or tPA (Example II)
Type: biochemical
Conditions: 0.5 μg/ml venom 5 min and/or 100 IU/ml tPA
Method: Two hundred mg of lyophilized, pooled venom was obtained from four western diamondback rattlesnakes (Crotalus atrox) for experimentation. Venom was reconstituted in calcium-free phosphate buffered saline (PBS, Sigma-Aldrich, Saint Louis, Mo., USA) at a concentration of 20 mg/ml, aliquoted, and then stored at −80° C. until experimentation at the University of Arizona.
Pooled normal plasma (George King Bio-Medical, Overland Park, Kans., USA) anticoagulated with sodium citrate was rapidly thawed at 37° C. and used for experimentation. To assess the effects of pretreatment of antifibrinolytic plasma proteins with iron, CO, or both, 1% additions of PBS, ferric chloride (FeCl3, 99.9% pure, Sigma-Aldrich, Saint Louis, Mo., USA) in PBS, or CORM-2 (tricarbonyldichlororuthenium (II) dimer, a CO releasing molecule, Sigma-Aldrich, Saint Louis, Mo., USA) dissolved in dimethyl sulfoxide (DMSO, Sigma-Aldrich, Saint Louis, Mo., USA) were used. […] Plasma was exposed to these various agents for at least 5 min prior to incubations with venom.
The final volume for all subsequently described plasma sample mixtures was 359.4 μl. […] The following elastic modulus-based parameters previously described (see, Nielsen V G, Pretorius E. Blood Coagul Fibrinolysis 2014; 25:695-702) were determined: time to maximum rate of thrombus generation (TMRTG): this is the time interval (min) observed prior to maximum speed of clot growth; maximum rate of thrombus generation (MRTG): this is the maximum velocity of clot growth observed (dynes/cm^2/sec); total thrombus generation (TTG, dynes/cm^2), the final viscoelastic resistance observed after clot formation; time to maximum rate of lysis (TMRL, min), maximum rate of lysis (MRL, dynes/cm^2/sec) and CLT (min). […]

[1] = vs control conditions (combination: vs all other conditions)

B1: tPA: tissue type plasminogen activator, 580 IU/μg, Genentech; 100 IU/ml final concentration (protein, UniProt P00750 36-562, looked up)
Tissue-type plasminogen …: SYQVICRDEKTQMIYQQHQSWLRPVLRSNRVEYCWCNSGRAQCHSVPVKSCSEPRCFNGGTCQQALYFSDFVCQCPEGFAGKCCEIDTRATCYEDQGISYRGTWSTAESGAECTNWNSSALAQKPYSGRRPDAIRLGLGNHNYCRNPDRDSKPWCYVFKAGKYSSEFCSTPACSEGNSDCYFGNGSAYRGTHSLTESGASCLPWNSMILIGKVYTAQNPSAQALGLGKHNYCRNPDGDAKPWCHVLKNRRLTWEYCDVPSCSTCGLRQYSQPQFRIKGGLFADIASHPWQAAIFAKHRRSPGERFLCGGILISSCWILSAAHCFQERFPPHHLTVILGRTYRVVPGEEEQKFEVEKYIVHKEFDDDTYDNDIALLQLKSDSSRCAQESSVVRTVCLPPADLQLPDWTECELSGYGKHEALSPFYSERLKEAHVRLYPSSRCTSQHLLNRTVTDNMLCAGDTRSGGPQANLHDACQGDSGGPLVCLNDGRMTLVGIISWGLGCGQKDVPGVYTKVTNYLDWIRDNMRP
[1]
  maximum rate of thrombus generation (MRTG): did not decrease
  total thrombus generation (TTG): significantly decreased
Vs control conditions (combination: vs any other condition)
  time to maximum rate of thrombus generation (TMRTG): did not prolong
